This is an account of results in patent publication US6780611B1, “Polynucleotide encoding neuromedin U receptor” (Pfizer Inc., priority 1999, dated 2004).

In the experiment the target is T1, PFI-002 receptor (Homo sapiens, UniProt Q9GZQ4, S2A).
T1 construct: expressed in transfected cells; host or cells: HEK 293 (human embryonic kidney), transient transfection
The experiment in a line: Functional screen of peptides by FLIPR (Fluo-3 fluorescence) in HEK 293 cells transiently transfected with PFI-002. In kind it is cell-based. The note with it: HEK 293 cells transiently transfected with PFI-002, Fluo-3 loaded; neuromedins 10 μM final, in triplicate; other peptides 5 μM final. As for the experimental part: Transient Expression in Native HEK 293 Cells
Transfection: 7.5 μg of PFI-002 DNA was transiently transfected into native human embryonic kidney 293 (HEK 293) cells (75 cm^2 flask, 80% confluent) using the Lipofectamine Plus protocol (Life Technologies, Inc.) and following the manufacturer's instructions. 24 hrs after transfection, the cells were detached with trypsin and seeded into black walled 96 well plates at a density of 5×10^4 cells/well. The next day the cells were loaded with Fluo-3 in the presence of 3 mM probenicid (Molecular Devices; inhibits activity of the anion transport protein, thus improving dye loading) for 1.5 hours (loading dye/96 well plate: 50 μg Fluo-3 in 20 μl DMSO+20 μl 20% pluronic acid in DMSO+11 ml growth media+3 mM probenicid—added 100 μl loading dye/well). After washing (wash buffer PBS/3 mM probenicid/pH 7.4), the cells were exposed to 60 peptides (final concentration 5 μM each) arrayed in a 96 well plate. In addition, neuromedins B, C, N, U8 and U25 (final concentration 10 μM each) were screened in triplicate. Fluorescence was measured by a Fluorometric Imaging Plate Reader (FLIPR, Molecular Devices) according to the manufacturer's protocol.

No end group written: not given here.

T1 sequence (Q9GZQ4 whole entry S2A): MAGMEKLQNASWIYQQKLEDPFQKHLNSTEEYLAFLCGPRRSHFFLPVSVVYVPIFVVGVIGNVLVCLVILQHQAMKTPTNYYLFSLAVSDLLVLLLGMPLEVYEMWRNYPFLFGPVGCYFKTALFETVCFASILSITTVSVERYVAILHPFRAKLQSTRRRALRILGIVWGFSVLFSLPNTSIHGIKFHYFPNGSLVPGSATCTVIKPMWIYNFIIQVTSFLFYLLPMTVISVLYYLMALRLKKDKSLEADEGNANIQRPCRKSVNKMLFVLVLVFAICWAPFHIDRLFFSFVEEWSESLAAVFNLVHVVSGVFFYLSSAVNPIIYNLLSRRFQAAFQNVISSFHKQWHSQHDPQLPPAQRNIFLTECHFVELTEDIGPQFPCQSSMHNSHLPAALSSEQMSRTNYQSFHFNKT

In the case of “neuromedin U: Peptide ligand of the PFI-002 receptor; screened as Neuromedin U8 and Neuromedin U25 (wells F10-G3) (FRVDEEFQSPFASQSRGYFLFRPRN; ends and bridges not checked; UniProt P48645 142-166, looked up)”, the “functional response of PFI-002 receptor (fluorescence measured by FLIPR, FIG. 2)” value is given as “specific functional response”.
